B1: Apoptosis-stimulating of p53 protein 2 (Homo sapiens), Q13625 (parent)
chain: MMPMFLTVYLSNNEQHFTEVPVTPETICRDVVDLCKEPGESDCHLAEVWCGSERPVADNERMFDVLQRFGSQRNEVRFFLRHERPPGRDIVSGPRSQDPSLKRNGVKVPGEYRRKENGVNSPRMDLTLAELQEMASRQQQQIEAQQQLLATKEQRLKFLKQQDQRQQQQVAEQEKLKRLKEIAENQEAKLKKVRALKGHVEQKRLSNGKLVEEIEQMNNLFQQKQRELVLAVSKVEELTRQLEMLKNGRIDSHHDNQSAVAELDRLYKELQLRNKLNQEQNAKLQQQRECLNKRNSEVAVMDKRVNELRDRLWKKKAALQQKENLPVSSDGNLPQQAASAPSRVAAVGPYIQSSTMPRMPSRPELLVKPALPDGSLVIQASEGPMKIQTLPNMRSGAASQTKGSKIHPVGPDWSPSNADLFPSQGSASVPQSTGNALDQVDDGEVPLREKEKKVRPFSMFDAVDQSNAPPSFGTLRKNQSSEDILRDAQVANKNVAKVPPPVPTKPKQINLPYFGQTNQPPSDIKPDGSSQQLSTVVPSMGTKPKPAGQQPRVLLSPSIPSVGQDQTLSPGSKQESPPAAAVRPFTPQPSKDTLLPPFRKPQTVAASSIYSMYTQQQAPGKNFQQAVQSALTKTHTRGPHFSSVYGKPVIAAAQNQQQHPENIYSNSQGKPGSPEPETEPVSSVQENHENERIPRPLSPTKLLPFLSNPYRNQSDADLEALRKKLSNAPRPLKKRSSITEPEGPNGPNIQKLLYQRTTIAAMETISVPSYPSKSASVTASSESPVEIQNPYLHVEPEKEVVSLVPESLSPEDVGNASTENSDMPAPSPGLDYEPEGVPDNSPNLQNNPEEPNPEAPHVLDVYLEEYPPYPPPPYPSGEPEGPGEDSVSMRPPEITGQVSLPPGKRTNLRKTGSERIAHGMRVKFNPLALLLDSSLEGEFDLVQRIIYEVDDPSLPNDEGITALHNAVCAGHTEIVKFLVQFGVNVNAADSDGWTPLHCAASCNNVQVCKFLVESGAAVFAMTYSDMQTAADKCEEMEEGYTQCSQFLYGVQEKMGIMNKGVIYALWDYEPQNDDELPMKEGDCMTIIHREDEDEIEWWWARLNDKEGYVPRNLLGLYPRIKPRQRSLA

This assay covers variants of B1. The note with it: with apcl_human APC2, O95996.
Chain of apcl_human APC2, O95996 (O95996 whole entry): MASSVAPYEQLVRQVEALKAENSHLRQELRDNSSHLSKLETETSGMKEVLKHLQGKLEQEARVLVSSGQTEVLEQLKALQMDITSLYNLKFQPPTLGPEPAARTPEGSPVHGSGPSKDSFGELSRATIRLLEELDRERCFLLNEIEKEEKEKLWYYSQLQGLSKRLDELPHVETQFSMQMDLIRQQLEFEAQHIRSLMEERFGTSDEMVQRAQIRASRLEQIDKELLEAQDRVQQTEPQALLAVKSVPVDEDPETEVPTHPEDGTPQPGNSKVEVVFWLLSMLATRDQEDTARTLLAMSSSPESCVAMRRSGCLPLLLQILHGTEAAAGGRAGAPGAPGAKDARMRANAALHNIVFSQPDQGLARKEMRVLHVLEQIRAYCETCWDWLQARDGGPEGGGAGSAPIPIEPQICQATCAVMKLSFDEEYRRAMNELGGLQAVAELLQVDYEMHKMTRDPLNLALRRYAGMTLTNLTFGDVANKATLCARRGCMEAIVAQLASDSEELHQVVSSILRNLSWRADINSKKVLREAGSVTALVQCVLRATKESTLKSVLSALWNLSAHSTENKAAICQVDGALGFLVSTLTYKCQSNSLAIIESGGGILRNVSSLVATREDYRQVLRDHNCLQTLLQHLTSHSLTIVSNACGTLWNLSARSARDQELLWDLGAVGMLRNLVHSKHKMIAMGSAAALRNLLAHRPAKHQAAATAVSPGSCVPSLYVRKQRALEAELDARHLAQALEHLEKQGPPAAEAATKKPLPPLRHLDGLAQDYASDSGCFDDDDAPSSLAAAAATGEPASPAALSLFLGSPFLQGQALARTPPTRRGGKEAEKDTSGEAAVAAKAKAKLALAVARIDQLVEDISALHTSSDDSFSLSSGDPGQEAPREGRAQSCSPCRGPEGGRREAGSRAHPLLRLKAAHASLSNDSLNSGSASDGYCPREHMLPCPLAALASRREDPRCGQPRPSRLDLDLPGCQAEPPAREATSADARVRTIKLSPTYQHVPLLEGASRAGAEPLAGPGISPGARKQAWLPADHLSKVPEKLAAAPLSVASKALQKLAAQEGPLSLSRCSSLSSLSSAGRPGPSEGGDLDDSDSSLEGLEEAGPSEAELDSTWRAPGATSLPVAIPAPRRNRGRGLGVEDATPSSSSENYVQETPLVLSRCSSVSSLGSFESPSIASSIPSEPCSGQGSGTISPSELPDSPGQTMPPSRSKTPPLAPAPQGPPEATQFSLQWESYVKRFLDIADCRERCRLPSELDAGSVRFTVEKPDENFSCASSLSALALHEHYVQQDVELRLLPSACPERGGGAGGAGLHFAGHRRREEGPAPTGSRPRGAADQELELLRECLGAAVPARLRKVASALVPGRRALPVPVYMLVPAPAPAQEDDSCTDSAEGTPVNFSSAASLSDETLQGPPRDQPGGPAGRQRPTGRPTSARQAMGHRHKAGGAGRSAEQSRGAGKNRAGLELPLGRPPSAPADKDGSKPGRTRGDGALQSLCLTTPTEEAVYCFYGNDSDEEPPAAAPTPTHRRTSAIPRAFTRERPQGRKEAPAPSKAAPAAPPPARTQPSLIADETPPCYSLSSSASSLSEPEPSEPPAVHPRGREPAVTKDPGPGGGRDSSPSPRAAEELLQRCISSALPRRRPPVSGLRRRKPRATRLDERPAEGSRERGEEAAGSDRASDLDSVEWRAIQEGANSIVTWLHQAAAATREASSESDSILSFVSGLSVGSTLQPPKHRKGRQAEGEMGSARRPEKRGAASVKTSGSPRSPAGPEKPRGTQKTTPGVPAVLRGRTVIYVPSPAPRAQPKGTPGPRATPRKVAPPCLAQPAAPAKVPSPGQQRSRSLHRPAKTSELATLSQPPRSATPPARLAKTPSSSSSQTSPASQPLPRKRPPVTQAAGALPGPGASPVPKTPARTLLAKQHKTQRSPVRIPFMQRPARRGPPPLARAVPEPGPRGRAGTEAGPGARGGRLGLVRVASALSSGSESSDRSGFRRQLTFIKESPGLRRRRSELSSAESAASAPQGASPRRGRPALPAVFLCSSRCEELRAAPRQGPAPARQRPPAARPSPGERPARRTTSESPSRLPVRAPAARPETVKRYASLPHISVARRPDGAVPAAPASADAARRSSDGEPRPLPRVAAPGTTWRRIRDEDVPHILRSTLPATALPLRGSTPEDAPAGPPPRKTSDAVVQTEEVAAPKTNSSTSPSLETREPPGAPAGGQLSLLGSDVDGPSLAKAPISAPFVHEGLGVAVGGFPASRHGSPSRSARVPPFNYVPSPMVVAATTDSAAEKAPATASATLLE
On to W1098K, for which the “effect of a mutation on the interaction” value is “disrupting interaction strength”.

(Values after IntAct's records for PubMed 10646860.)
